# Data taken from patent publication US20050266469.
# T1: peptide derived from the known CHK1 kinase substrate CDC25C (GLYRSPSMPENLNR)
# T1 chain: GLYRSPSMPENLNR
# B1: CHK1sv1-His-tagged protein (protein)
# chain: MAVPFVEDWDLVQTLGEGAYGEVQLAVNRVTEEAVAVKIVDMKRAVDCPENIKKEICINKMLNHENVVKFYGHRREGNIQYLFLEYCSGGELFDRIEPDIGMPEPDAQRFFHQLMAGVVYLHGIGITHRDIKPENLLLDERDNLKISDFGLATVFRYNNRERLLNKMCGTLPYVAPELLKRREFHAEPVDVWSCGIVLTAMLAGELPWDQPSDSCQEYSDWKEKKTYLNPWKKIDSAPLALLHKILVENPSARITIPDIKKDRWYNKPLKKGAKRPRVTSGGVSESPSGFSKHIQSNLDFSPVNSASRTPGSGWSKEHHHHHH
# Target: T1, peptide derived from the known CHK1 …
protein,measurement,value
B1,Km (CDC25C substrate),120 µM
same,Vmax,36 nmol/min/µg
